Source: patent US20250171533A1 (NEXTPOINT THERAPEUTICS, published 2025)

Key:
[1] = biological target: T1, KIR3DL3 expressed on cells (human, UniProt Q8N743 26-410); assay: flow cytometry on 300.19-KIR3DL3 cells, anti-human PE secondary, gMFI
T1 construct: whole, on cells; One entry for KIR3DL3 on all the cell types; also called NK92MI cells
Experimental: (§1) Flow cytometric analysis of primary antibody binding was detected using an anti-human PE secondary antibody. The mean and standard deviation of duplicate data points are shown. Data performed in duplicate was entered into GraphPad Prism software and the EC₅₀ was determined using a 4-parameter nonlinear regression equation.

[2] = biological target: T2, recombinant KIR3DL3 protein (human) (human, UniProt Q8N743 26-322, limits assumed); assay: SPR (Biacore); column kd1 (1/s); the drawn table names KIR3DL3 as analyte and NPX267 as ligand, paragraph 256 says the reverse
T2 construct: also called human KIR3DL3; killer cell immunoglobulin like receptor, three Ig domains and long cytoplasmic tail 3
T2 sequence (Q8N743 26-322 limits assumed): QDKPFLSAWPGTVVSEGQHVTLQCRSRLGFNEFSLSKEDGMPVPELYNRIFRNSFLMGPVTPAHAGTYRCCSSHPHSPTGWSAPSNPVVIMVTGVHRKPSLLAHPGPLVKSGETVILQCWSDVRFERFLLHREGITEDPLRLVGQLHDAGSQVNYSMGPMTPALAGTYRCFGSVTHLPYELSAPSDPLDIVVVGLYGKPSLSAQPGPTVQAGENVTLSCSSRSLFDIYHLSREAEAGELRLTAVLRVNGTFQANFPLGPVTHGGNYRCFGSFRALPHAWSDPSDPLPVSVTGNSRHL
Experimental: (§2) The monovalent binding affinity of NPX267 to recombinant KIR3DL3 protein was determined by SPR using a Biacore instrument; KIR3DL3 protein was immobilized on a CM5 chip and NPX267 was run as the analyte. […] No off-target binding was found in a screen of greater than 5800 plasma membrane proteins.

[3] = biological target: T2, recombinant KIR3DL3 protein (human); assay: SPR (Biacore), KIR3DL3 protein immobilized on a CM5 chip, NPX267 as analyte; KIR3DL3 immobilized on CM5 chip; NPX267 IgG4 as analyte
Experimental: as §2

[4] = biological target: T1, KIR3DL3 expressed on cells; assay: blocking assay by flow cytometry on 300.19-KIR3DL3 cells; blocked ligand: recombinant biotinylated HHLA2, detected by streptavidin-APC
Experimental: Recombinant biotinylated HHLA2 at 5 mg/mL was added to the cells and incubated for 30 minutes. The cells were treated with 1:250 of APC-streptavidin for 30 minutes to detect recombinant biotinylated HHLA2 bound to cells. […] NPX267 blocked recombinant HHLA2-Fc from binding to its inhibitory receptor KIR3DL3 in a dose dependent manner.

[5] = biological target: T1, KIR3DL3 expressed on cells; assay: flow cytometry on primary human NK cells in whole blood, Donor KP63935, GeoMean of anti-human PE secondary; no unit in the table, unit taken from the axis Log [ug/ml]
Experimental: (§3) For primary human NK cells, human whole blood cells were treated with NPX267 at concentrations ranging from […] to […] for 30 minutes (FIG. 3C). Red blood cells were lysed and cells were stained with a cocktail of anti-human CD3, Anti-human CD56 and anti-human IgG4 PE. Flow cytometric analysis of primary antibody binding was detected using an anti-human PE secondary antibody.

[6] = biological target: T1, KIR3DL3 expressed on cells; assay: flow cytometry on primary human NK cells in whole blood, Donor KP63901, GeoMean of anti-human PE secondary; no unit in the table, unit taken from the axis Log [ug/ml]
Experimental: as §3

[7] = biological target: T1, KIR3DL3 expressed on cells; assay: flow cytometry on NK92MI cells, anti-human PE secondary, gMFI; no unit beside the number, unit taken from the axis log [ug/mL]
Experimental: as §1
NK92 MI cells were treated with NPX267 at concentrations ranging from […] to 0.0005 mg/mL for 30 minutes (FIG. 3B). Flow cytometric analysis of primary antibody binding was detected using an anti-human PE secondary antibody. The mean and standard deviation of triplicate data points are shown.

[8] = biological target: T1, KIR3DL3 expressed on cells; assay: cell-based or functional assay
[9] = biological target: T1, KIR3DL3 expressed on cells; assay: flow cytometry on primary human NK cells in whole blood, Donor KP63936, GeoMean of anti-human PE secondary; no unit in the table, unit taken from the axis Log [ug/ml]
Experimental: as §3

[10] = biological target: T2, recombinant KIR3DL3 protein (human); assay: SPR (Biacore); column ka1 (1/Ms); the drawn table names KIR3DL3 as analyte and NPX267 as ligand, paragraph 256 says the reverse
Experimental: as §2

T1 sequence (Q8N743 26-410): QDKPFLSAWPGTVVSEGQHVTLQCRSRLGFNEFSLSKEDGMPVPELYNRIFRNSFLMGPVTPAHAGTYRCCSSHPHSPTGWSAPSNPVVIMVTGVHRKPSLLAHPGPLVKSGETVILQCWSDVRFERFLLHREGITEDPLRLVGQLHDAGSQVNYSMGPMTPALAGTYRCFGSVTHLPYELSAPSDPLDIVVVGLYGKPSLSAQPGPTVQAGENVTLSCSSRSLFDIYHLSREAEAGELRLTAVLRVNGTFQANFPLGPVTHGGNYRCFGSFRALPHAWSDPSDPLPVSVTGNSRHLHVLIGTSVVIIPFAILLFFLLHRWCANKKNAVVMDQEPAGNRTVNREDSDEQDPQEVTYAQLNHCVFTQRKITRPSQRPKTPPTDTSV

EC50 [1]: 0.0684 µg/mL
koff [2]: 0.000398 s⁻¹
Kd [3]: 0.679 nM
IC50 (read off the curve) [4]: ~0.05 µg/mL
EC50 [5]: 0.0294 µg/mL
EC50 [6]: 0.0298 µg/mL
EC50 [7]: 0.131 µg/mL
EC50 [9]: 0.098 µg/mL
kon [10]: 587000 M⁻¹ s⁻¹
B1: NPX267 (Hu26E10z7p7) (antibody, human IgG4 S228P, kappa, V domains shown)
VH: QAQLVQSGAEVKKPGASVKVSCKASGYTFTSYNIHWVRQAPGQGLEWMGYIYPGDAVTNYNQKFKGRVTMTADTSTSTVYMELSSLRSEDTAVYYCARSGNYGNYEGFAYWGQGTLVTVSS
VL: DIQMTQSPSSLSASVGDRVTITCKASQDTQSYLSWFQQKPGKAPKTLIYRANRLVDGVPSRFSGSGSGTDFTLTISSLQPEDFATYYCLQYDEFPYTFGGGTKVEIKR
notes: For staining of tumor infiltrating NK cells an APC conjugate (NPX267-APC) was used; also called humanized version of 26E10
target cell death (Annexin V), NK92MI effector cells against K562 cells engineered to express HHLA2 [8]: 2 fold
